This is an account of results in FireProtDB (doi:10.1021/bi00146a008).

First the molecules themselves.
B1: Lysozyme C, P61626 (parent)
chain: MKALIVLGLVLLSVTVQGKVFERCELARTLKRLGMDGYRGISLANWMCLAKWESGYNTRATNYNAGDRSTDYGIFQINSRYWCNDGKTPGAVNACHLSCSALLQDNIADAVACAKRVVRDPQGIRAWVAWRNRCQNRDVRQYVQGCGV

In the data set the parent is B1. Conditions: Homo sapiens, pH 2.8, Thermal, DSC, glycine-HCl 50 mM, reversible: yes, structure 1LZ1, whole UniProt chain shown.

Consider MKALIVLGLVLLSVTVQGKVFERCELARTLKRLGMDGYRGISLANWMCLAKWESGYNTRATNYNPGDRSTDYGIFQINSRYWCNDGKTPGAVNACHLSCSALLQDNIADAVACAKRVVRDPQGIRAWVAWRNRCQNRDVRQYVQGCGV [A65P], for which the Tm (usually the temperature at the midpoint of the melting transition) came to 69.1 °C; the “change of melting temperature, mutant - wild type (higher = more stable)” value (from here on “change of melting temperature, mutant”) was 0.3 °C; the “heat capacity change of unfolding” value stood at 1.56 kcal/mol/K. For the same variant, where the note is “68.8 °C”, the “ddG of mutation (higher = less stable)” value was -0.1 kcal/mol, the “heat capacity change of unfolding” value was 1.56 kcal/mol/K and the “unfolding enthalpy (calorimetric)” value was 119 kcal/mol.

Regarding MKALIVLGLVLLSVTVQGKVFERCELARTLKRLGMDGYRGISLANWMCLAKWESGYNTRATNYNAGDRSTDYGIFQINSRYWCNDGKTPGAVNACHLSCSALLQDNIADAVACAKRVVRDPQGIRAWPAWRNRCQNRDVRQYVQGCGV [V128P], the melting temperature (Tm) came to 70 °C; the “change of melting temperature, mutant” value was determined as 1.2 °C; the “heat capacity change of unfolding” value was 1.57 kcal/mol/K. In addition, for the setting “68.8 °C”, the “ddG of mutation (higher = less stable)” value was -0.5 kcal/mol, the “heat capacity change of unfolding” value came to 1.57 kcal/mol/K and the “unfolding enthalpy (calorimetric)” value was found to be 120 kcal/mol.

On to MKALIVLGLVLLSVTVQGKVFERCELARTLKRLGMDGYRGISLANWMCLAKWESGYNTRATNYNAGDRSTDYGIFQINSRYWCNDGKTPGAVNACHLSCSALLQDNIADAVACAKRVVRDGQGIRAWVAWRNRCQNRDVRQYVQGCGV [P121G], for which the Tm was determined as 68.7 °C; the “change of melting temperature, mutant” value was -0.1 °C; the “heat capacity change of unfolding” value was 1.58 kcal/mol/K. In addition, where the note is “68.8 °C”, the “ddG of mutation (higher = less stable)” value was determined as 0.1 kcal/mol, the “heat capacity change of unfolding” value is 1.58 kcal/mol/K and the “unfolding enthalpy (calorimetric)” value stood at 120 kcal/mol.

On to MKALIVLGLVLLSVTVQGKVFERCELARTLKRLGMDGYRGISLANWMCLAKWESGYNTRATNYNAGDRSTDYGIFQINSRYWCNDGKTGGAVNACHLSCSALLQDNIADAVACAKRVVRDPQGIRAWVAWRNRCQNRDVRQYVQGCGV [P89G], for which the Tm was 64.1 °C; the “change of melting temperature, mutant” value is -4.7 °C; the “heat capacity change of unfolding” value was determined as 1.58 kcal/mol/K. In addition, for the setting “68.8 °C”, the “ddG of mutation (higher = less stable)” value was 1.6 kcal/mol, the “heat capacity change of unfolding” value was determined as 1.58 kcal/mol/K and the “unfolding enthalpy (calorimetric)” value was determined as 121 kcal/mol.

Regarding MKALIVLGLVLLSVTVQGKVFERCELARTLKRLGMDGYRGISLANWMCLAKWESGYNTRATNYNAGDRSTDYGIFQINSRYWCNDGKTGGAVNACHLSCSALLQDNIADAVACAKRVVRDGQGIRAWVAWRNRCQNRDVRQYVQGCGV [P89G P121G], the Tm turned out to be 64.3 °C; the “change of melting temperature, mutant” value was -4.5 °C; the “heat capacity change of unfolding” value turned out to be 1.58 kcal/mol/K. Besides, under “68.8 °C”, the “ddG of mutation (higher = less stable)” value came out at 1.6 kcal/mol, the “heat capacity change of unfolding” value was 1.58 kcal/mol/K and the “unfolding enthalpy (calorimetric)” value came out at 120 kcal/mol.

For the variant MKALIVLGLVLLSVTVQGKVFERCELARTLKRLGMDGYRGISLANWMCLAKWESGYNTRATNYNAGDRSTDYGIFQINSRYWCNDGKTPGAVNACHLSCSALLQDNIAPAVACAKRVVRDPQGIRAWVAWRNRCQNRDVRQYVQGCGV [D109P], the Tm came to 67.7 °C; the “change of melting temperature, mutant” value is -1.1 °C; the “heat capacity change of unfolding” value came out at 1.57 kcal/mol/K. Also, where the note is “68.8 °C”, the “ddG of mutation (higher = less stable)” value turned out to be 0.4 kcal/mol, the “heat capacity change of unfolding” value was found to be 1.57 kcal/mol/K and the “unfolding enthalpy (calorimetric)” value worked out at 115 kcal/mol.
